This data set concerns the molecule itself. Description: dynamic light scattering.

B1: recombinant Arc S67D, GST tag cleaved (natural protein)
chain: MELDHMTTGGLHAYPAPRGGPAAKPNVILQIGKCRAEMLEHVRRTHRHLLTEVSKQVERELKGLHRDVGKLENNLDGYVPTGDSQRWKKSIKACLCRCQETIANLERWVKREMHVWREVFYRLERWADRLESMGGKYPVGSEPARHTVSVGVGGPEPYCQEADGYDYTVSPYAITPPPAAGELPEQESVEAQQYQSWGPGEDGQPSPGVDTQIFEDPREFLSHLEEYLRQVGGSEEYWLSQIQNHMNGPAKKWWEFKQGSVKNWVEFKKEFLQYSEGTLSREAIQRELELPQKQGEPLDQFLWRKRDLYQTLYVDAEEEEIIQYVVGTLQPKLKRFLRHPLPKTLEQLIQRGMEVQDGLEQAAEPSGTPLPTEDETEALTPALTSESVASDRTQPE
For the protein B1, the binding result is recorded as “binds”.

B2: recombinant Arc T278D, GST tag cleaved (natural protein)
chain: MELDHMTTGGLHAYPAPRGGPAAKPNVILQIGKCRAEMLEHVRRTHRHLLTEVSKQVERELKGLHRSVGKLENNLDGYVPTGDSQRWKKSIKACLCRCQETIANLERWVKREMHVWREVFYRLERWADRLESMGGKYPVGSEPARHTVSVGVGGPEPYCQEADGYDYTVSPYAITPPPAAGELPEQESVEAQQYQSWGPGEDGQPSPGVDTQIFEDPREFLSHLEEYLRQVGGSEEYWLSQIQNHMNGPAKKWWEFKQGSVKNWVEFKKEFLQYSEGDLSREAIQRELELPQKQGEPLDQFLWRKRDLYQTLYVDAEEEEIIQYVVGTLQPKLKRFLRHPLPKTLEQLIQRGMEVQDGLEQAAEPSGTPLPTEDETEALTPALTSESVASDRTQPE
With B2, the binding result was “binds”.

The values above are taken from article doi:10.1101/2021.04.04.438383 (bioRxiv, 2021).
